Experimental findings from patent US20260258390 are described below.

To fix the notation:
T1: succinyl-L-Ala-L-Ala-L-Pro-L-Phe-p-nitroanilide (SEQ ID NO: 1)
T1 chain: AAPF

B1: N74D/S99G/V102W/S126G/N198A/N212S/T254P (variant of sequence SEQ ID NO: 5) (protein)
chain: AQSVPWGISRVQAPAAHNRGLTGSGVKVAVLDTGISTHPDLNIRGGASFVPGEPSTQDGNGHGTHVAGTIAALDNSIGVLGVAPSAELYAVKVLGASGGGSWSSIAQGLEWAGNNGMHVANLSLGGPSPSATLEQAVNSATSRGVLVVAASGNSGAGSISYPARYANAMAVGATDQNNNRASFSQYGAGLDIVAPGVAVQSTYPGSTYASLSGTSMATPHVAGAAALVKQKNPSWSNVQIRNHLKNTATSLGSPNLYGSGLVNAEAATR
B2: N74D/S99G/V102W/S126G/D191E/N198G/N212S/T254P (variant of sequence SEQ ID NO: 4) (protein)
chain: AQSVPWGISRVQAPAAHNRGLTGSGVKVAVLDTGISTHPDLNIRGGASFVPGEPSTQDGNGHGTHVAGTIAALDNSIGVLGVAPSAELYAVKVLGASGGGSWSSIAQGLEWAGNNGMHVANLSLGGPSPSATLEQAVNSATSRGVLVVAASGNSGAGSISYPARYANAMAVGATDQNNNRASFSQYGAGLEIVAPGVGVQSTYPGSTYASLSGTSMATPHVAGAAALVKQKNPSWSNVQIRNHLKNTATSLGSPNLYGSGLVNAEAATR
B3: N74D/S97D/S126G/P204I/T254P/S259N (variant of sequence SEQ ID NO: 6) (protein)
chain: AQSVPWGISRVQAPAAHNRGLTGSGVKVAVLDTGISTHPDLNIRGGASFVPGEPSTQDGNGHGTHVAGTIAALDNSIGVLGVAPSAELYAVKVLGADGSGSVSSIAQGLEWAGNNGMHVANLSLGGPSPSATLEQAVNSATSRGVLVVAASGNSGAGSISYPARYANAMAVGATDQNNNRASFSQYGAGLDIVAPGVNVQSTYIGSTYASLNGTSMATPHVAGAAALVKQKNPSWSNVQIRNHLKNTATSLGSPNLYGNGLVNAEAATR
B4: wild-type subtilisin of Bacillus lentus (SEQ ID NO: 2) (protein)
chain: AQSVPWGISRVQAPAAHNRGLTGSGVKVAVLDTGISTHPDLNIRGGASFVPGEPSTQDGNGHGTHVAGTIAALNNSIGVLGVAPSAELYAVKVLGASGSGSVSSIAQGLEWAGNNGMHVANLSLGSPSPSATLEQAVNSATSRGVLVVAASGNSGAGSISYPARYANAMAVGATDQNNNRASFSQYGAGLDIVAPGVNVQSTYPGSTYASLNGTSMATPHVAGAAALVKQKNPSWSNVQIRNHLKNTATSLGSTNLYGSGLVNAEAATR
B5: N74D/S101A/V102W (control variant of WO1995010591; sequence SEQ ID NO: 3) (protein)
chain: AQSVPWGISRVQAPAAHNRGLTGSGVKVAVLDTGISTHPDLNIRGGASFVPGEPSTQDGNGHGTHVAGTIAALDNSIGVLGVAPSAELYAVKVLGASGSGAWSSIAQGLEWAGNNGMHVANLSLGSPSPSATLEQAVNSATSRGVLVVAASGNSGAGSISYPARYANAMAVGATDQNNNRASFSQYGAGLDIVAPGVNVQSTYPGSTYASLNGTSMATPHVAGAAALVKQKNPSWSNVQIRNHLKNTATSLGSTNLYGSGLVNAEAATR

In this data set the target is T1, succinyl-L-Ala-L-Ala-L-Pro-L-Phe-p-nitro ….
Turning to B1, the Km pH 8.6 (mM) came out at 0.05 mM, the Km pH 10 (mM) was found to be 0.09 mM, the kcat pH 8.6 (% of wild-type) (% of wild-type) is 503 and the kcat pH 10 (% half-life of wild-type) (% of wild-type) stood at 723. For the same protein, the kcat/Km pH 8.6 (% of wild-type) (% of wild-type) is 6360 and the kcat/Km pH 10 (% wild-type) amounted to 10800 % wild-type.
As for B2, the Km pH 8.6 (mM) was 0.11 mM, the Km pH 10 (mM) came out at 0.19 mM, the kcat pH 8.6 (% of wild-type) (% of wild-type) came out at 579 and the kcat pH 10 (% half-life of wild-type) (% of wild-type) stood at 719. The kcat/Km pH 8.6 (% of wild-type) (% of wild-type) was 3330 and the kcat/Km pH 10 (% wild-type) was found to be 5100 % wild-type.
Take B3: the Km pH 8.6 (mM) is 0.66 mM, the Km pH 10 (mM) is 0.52 mM, the kcat pH 8.6 (% of wild-type) (% of wild-type) amounted to 55 and the kcat pH 10 (% half-life of wild-type) (% of wild-type) turned out to be 37. The kcat/Km pH 8.6 (% of wild-type) (% of wild-type) was 51 and the kcat/Km pH 10 (% wild-type) stood at 97 % wild-type.
Regarding B4, the Km pH 8.6 (mM) was 0.63 mM, the Km pH 10 (mM) was 1.34 mM, the kcat pH 8.6 (% of wild-type) (% of wild-type) came out at 100 and the kcat pH 10 (% half-life of wild-type) (% of wild-type) came out at 100. The kcat/Km pH 8.6 (% of wild-type) (% of wild-type) was 100 and the kcat/Km pH 10 (% wild-type) stood at 100 % wild-type.
B5: the Km pH 8.6 (mM) came out at 0.29 mM, the Km pH 10 (mM) stood at 0.33 mM, the kcat pH 8.6 (% of wild-type) (% of wild-type) is 638 and the kcat pH 10 (% half-life of wild-type) (% of wild-type) is 554. The kcat/Km pH 8.6 (% of wild-type) (% of wild-type) was 1390 and the kcat/Km pH 10 (% wild-type) turned out to be 2260 % wild-type.
